Experimental data as given in patent US20110136121A1 (TORAY INDUSTRIES, published 2011).

Legend:
[1] = target: T1, canine CAPRIN-1, endogenous (canine tissue sections; serum of cancer-bearing dogs) (dog, UniProt A0A8I3S8S8 2-717); test: sandwich ELISA: polyclonal anti-SEQ ID NO: 43 immobilised, serum of cancer-bearing dogs, monoclonal antibody 1 ug/ml as secondary antibody
T1 construct: Endogenous protein or fragment of it; also called antigen polypeptide contained in specimens (dog)
T1 sequence: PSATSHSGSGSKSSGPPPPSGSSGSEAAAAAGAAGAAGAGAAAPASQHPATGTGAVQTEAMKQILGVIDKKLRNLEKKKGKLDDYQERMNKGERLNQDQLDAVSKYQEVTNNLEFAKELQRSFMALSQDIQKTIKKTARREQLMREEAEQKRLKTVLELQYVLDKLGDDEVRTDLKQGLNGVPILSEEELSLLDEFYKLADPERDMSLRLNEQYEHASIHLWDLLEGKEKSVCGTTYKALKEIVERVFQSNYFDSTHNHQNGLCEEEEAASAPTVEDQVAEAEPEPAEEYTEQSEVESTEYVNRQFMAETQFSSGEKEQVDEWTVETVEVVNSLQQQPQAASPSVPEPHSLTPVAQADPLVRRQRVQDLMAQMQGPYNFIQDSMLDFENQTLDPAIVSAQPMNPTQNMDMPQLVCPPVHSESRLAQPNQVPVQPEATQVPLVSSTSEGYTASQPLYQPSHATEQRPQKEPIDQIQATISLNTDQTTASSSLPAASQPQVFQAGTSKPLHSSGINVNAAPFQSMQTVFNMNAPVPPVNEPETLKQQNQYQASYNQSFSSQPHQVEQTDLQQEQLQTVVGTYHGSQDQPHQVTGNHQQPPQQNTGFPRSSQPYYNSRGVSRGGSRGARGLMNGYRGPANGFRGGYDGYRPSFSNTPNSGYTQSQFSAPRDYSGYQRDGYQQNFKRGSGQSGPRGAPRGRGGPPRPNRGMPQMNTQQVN
Excerpt: With the use of the polyclonal antibody against CAPRIN-1-derived peptide (SEQ ID NO: 43) obtained in Example 3 (1) and each monoclonal antibody against the CAPRIN-1 protein obtained in Example 3 (2) in combination, the antigen polypeptide itself contained in specimens (cancer-bearing living organism-derived serum) reacted positive upon cancer diagnosis using the polypeptide of CAPRIN-1 in Example 4 (1)-(3) was detected by Sandwich ELISA. The polyclonal antibody was used as a primary antibody and each monoclonal antibody was used as a secondary antibody. The serum protein level of the protein specifically reacting with each of the above antibodies was measured.
The primary antibody was immobilized by adding the polyclonal antibody diluted to a concentration of 5 μg/ml with phosphate buffered saline to 96-well immobilizer amino plates (Nunc) at 100 μl/well and then shaking the plates at room temperature for 2 hours. Blocking was performed by adding a 50 mM sodium bicarbonate buffer solution (pH 8.4) (hereinafter, blocking solution) containing 0.5% BSA (bovine serum albumin, Sigma Aldrich Japan) at 100 μl/well and then shaking at room temperature for 1 hour. Subsequently, a cancer-bearing living organism-derived serum diluted using the blocking solution was added at 100 μl/well and then the resultants were shaken at room temperature for 3 hours for reaction. The dilution rate at this time was adjusted with 10-fold (10-1000-fold) dilution series. After 3 instances of washing with phosphate buffered saline (hereinafter, PBS-T) containing 0.05% Tween20 (Wako Pure Chemical Industries, Ltd.), each monoclonal antibody as a secondary antibody diluted to a concentration of 1 μg/ml with the blocking solution was added at 100 μl/well and then the resultants were shaken at room temperature for 1 hour for reaction. After 3 instances of washing with PBS-T, an HRP-labeled anti-mouse IgG (H+L) antibody (Invitrogen Corporation) as a tertiary antibody diluted 5000-fold with the blocking solution was added at 100 μl per well and then left to stand at room temperature for 1 hour. […]

[2] = target: feline CAPRIN-1, endogenous (serum of cancer-bearing cats) (cat); test: sandwich ELISA: polyclonal anti-SEQ ID NO: 43 immobilised, serum of cancer-bearing cats, monoclonal antibody 1 ug/ml as secondary antibody

B1: monoclonal antibody #2 (antibody, V domains shown)
VH: EVQLHQFGAELVKPGASVKISCKASGYTFTDYNMDWVKQSHGKSLEWIGDINPNYDSTSYNQKFKGKATLTVDKSSSTAYMELRSLTSEDTAVYYCARSRSYDYEGFAYWGQGTLVTVSA
VL: DIQLTQSPASLSASVGETVTITCRASGNIHNYLAWYQQKQGKSPQLLVYNAKTLADGVPSRFSGSGSGTQYSLKINSLQPEDFGSYYCQHFWSTLTFGGGTKLEIK
notes: mouse hybridoma monoclonal antibody; also called anti-CAPRIN-1 monoclonal antibody #2
absorbance at 450 nm (polypeptide level) [1]: ≥ 0.3 | absorbance at 450 nm (polypeptide level) [2]: > 0.3

B2: monoclonal antibody #3 (antibody, V domains shown)
VH: EVQLHQFGAELVKPGASVKISCKASGYTFTDYNMDWVKQSHGKSLEWIGDINPNYDSTSYNQKFKGKATLTVDKSSSTAYMELRSLTSEDTAVYYCARSRSYDYEGFAYWGQGTLVTVSA
VL: SGDRVSLSCRASQSISNYLHWYQQKSHESPRLLIKYASQSISGIPSRFSGSGSGTDFTLSINSVETEDFGMYFCQQSNSWPYTFGAGTKLEIKQ
notes: mouse hybridoma monoclonal antibody; also called anti-CAPRIN-1 monoclonal antibody #3
absorbance at 450 nm (polypeptide level) [1]: ≥ 0.3

B3: monoclonal antibody #6 (antibody, V domains shown)
VH: LQESGAELARPGASVKLSCKASGYTFTSYWMQWVKQRPGQGLEWIGAIYPGDGDTRYTQKFKGKATLTADKSSSTAYMQLSSLASEDSAVYYCARGEYGNYFAYWGQGTTVTVSS
VL: TSDASLGERVTITCKASQDINSYLSWFQQKPGKSPKTLIYRANRLVDGVPSRFSGSGSGQDYSLTISSLEYEDMGIYYCLQYDEFPLTFGGGTKLEIKQ
notes: mouse hybridoma monoclonal antibody; also called anti-CAPRIN-1 monoclonal antibody #6
absorbance at 450 nm (polypeptide level) [1]: ≥ 0.3
